Measured values taken from the supplement of paper PMC11865577.

How the values were obtained:
Assay in all cases: pull-down binding Z-score (relative to library population); higher = stronger binding
[1] = system: G-clamp-N3 (biotin conjugate); details: RNA library: Library-1 (pre-miRNA loops + repeats)
In short: (§1)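 Binding is given as a Z-score against the library mean and standard deviation, calculated after removing the beads-only signal and averaging barcoded replicate probes without their highest and lowest values. Cy5- or Cy3-end-labelled RNA library (1 μg) was heat-folded in phosphate/NaCl/KCl buffer and incubated 60 min at 25 °C with streptavidin beads bearing 100 pmol of biotin-conjugated small molecule. After three washes, RNA eluted in hot SDS was hybridised to a DNA barcode microarray for 20 h at 55.5 °C.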

[2] = system: TO-3-N3 (biotin conjugate); details: RNA library: Library-2
In short: as §1

[3] = system: TO-3-N3-2 (biotin conjugate); details: RNA library: Library-2
In short: as §1

TO-N3 (biotin conjugate) = details: RNA library: Library-2
In short: as §1

[4] = system: TO-N3-2 (biotin conjugate); details: RNA library: Library-2
In short: as §1

Sequence	pull-down binding Z-score [1]	pull-down binding Z-score [2]	pull-down binding Z-score [3]	pull-down binding Z-score (TO-N3 (biotin conjugate))	pull-down binding Z-score [4]
CGGCGGCGGCGGCGGCGGCGGCGGCGGCGGCGGCGGCGGCGGCGGCGG [G4_r(CGG)16]	-0.145	8.23	9.63	6.82	5.03
UGGGUCAAGGAGCCCA [hsa-mir-4530]	0.476	-0.163	-0.211	-0.3	-0.3
UGUAUGUGUAAAUACAUAUCCACACA [hsa-mir-4789]	-1.45	0.0268	-0.00888	-0.285	-0.589
GCAGCUGGAAUUCAAGCCCUGCUGC [hsa-mir-6882]	-0.0183	-0.477	-0.319	-0.475	0.0816
CUGUGAUAACAACUCAG [hsa-mir-4705]	-1.06	0.564	-0.23	0.29	-0.508
CACAAUAUUUAGGACAACAAUAUU [hsa-mir-1302-6]	-0.807	-0.282	0.226	-0.362	-0.518
AGACUCUGGAUUUUACACUUGGAGUG [hsa-mir-887]	-0.423	-0.461	-0.196	-0.207	-0.0223
CAUACAUAUGCCUACUACUACUUUCAUAUGUAGGCAUAUGUAUG [hsa-mir-7852]	-0.626	-0.502	-0.144	-0.8	-0.89
ACGAUAUAUAUACUGCCCUGCUUUUAUACAUACAUACAUACAUACCUAUAUCGU [hsa-mir-4536-1]	-0.956	-0.603	-0.00614	-0.734	-0.809
UCCUGAUGGUCCCCUCCCCAGGG [hsa-mir-185]	-1.02	0.122	-0.187	0.275	0.784
CCACGGGCUGGGCACAGUGG [hsa-mir-3159]	1.07	1.04	0.391	1.18	0.891
UUCUGCUGUGCCUUACAGCAGUAGAA [hsa-mir-3179-4_3179-1_3179-3_3179-2]	0.67	0.188	-0.383	0.0349	-0.695
AGCACUUUCUGUUGUCUGAAAGAAAAGAAAGUGCU [hsa-mir-516a-1_516a-2]	1.47	0.399	0.0524	0.686	-0.0183
AACGUUAUGUGUGGUCUUUAACCUGUU [hsa-mir-6755]	-1.32	-0.152	0.16	-0.139	-0.171
CUGGGAAGGGAGCUGUCCGGCUCCCCAG [hsa-mir-3155b]	2.41	-0.412	-0.263	-0.53	-0.136
UUCUUGUACGAGUCUGCGGCCAACCGAGAA [hsa-mir-219a-2]	-0.0874	-0.402	-0.366	0.347	0.974
UCCCAGGCCCUUCCUCCAAUACUGGGA [hsa-mir-4666b]	-0.809	-0.252	-0.0987	-0.383	-0.446
ACUUUUUUUUUUUUUUUUUUUAAUGUUAAAAGU [hsa-mir-5588]	0.463	-0.429	0.823	-0.82	-0.107

Sequence	pull-down binding Z-score [1]	pull-down binding Z-score [2]	pull-down binding Z-score [3]	pull-down binding Z-score (TO-N3 (biotin conjugate))	pull-down binding Z-score [4]
UUUUCUGUCCUGUCCACACAGAAAA [hsa-mir-1537]	-1	-0.957	-0.517	-1.27	-0.902
GUGAUAGUAAUAAAGUCUCAU [hsa-mir-135a-2]	-0.286	-0.314	-0.218	-0.32	-0.0282
GGUUUCUUAAAAUGGAAUCU [hsa-mir-1255b-1]	0.385	-0.382	0.0245	-0.413	-0.251
GCUCCCAACCAACCACUUCCACAUGUUUUGCUGGU [hsa-mir-4451]	-1.34	0.136	0.239	0.244	0.308
AUGAUUUUUGGGGUCA [hsa-mir-4678]	1.23	-0.0616	-0.1	-0.0941	-0.328
AGUGAGGCGUCGGCUGUGUUUCU [hsa-mir-2110]	-0.519	0.387	0.174	0.741	1.03
UUCAUUCAUUCGUUUGCACAUUCGGUGAA [hsa-mir-493]	0.183	-0.556	-0.21	-0.736	-0.394
GGCAGGGUCCUCCAGCUCAUUCCUCCUGCC [hsa-mir-6829]	0.723	0.564	0.56	0.491	0.71
AGGUAGUGUUUAGUUAUCUACU [hsa-mir-20a]	1.28	-0.264	0.257	-0.285	-0.218
AGCUGUUGAACUGGGAACCUGCU [hsa-mir-31]	0.781	-0.162	-0.00735	0.368	0.794
GUUGGGGAACAGGUGGUUAGCACUUCAU [hsa-mir-5196]	0.351	1.07	0.521	1.35	0.81
ACUCCCAGAACUCAUUAAGUUGGUAGU [hsa-mir-1278]	-0.174	-0.0721	-0.184	-0.188	-0.482
GUCACCAGCCCUCAUGUACUUGUGAC [hsa-mir-6820]	-1.09	0.335	-0.289	0.222	-0.281
CUUAGAUUUUUCCAUCUUUGUAUCUAG [hsa-mir-29b-2]	0.453	-0.805	-0.236	-0.995	-0.98
GCCAGUGUGUAAAAUGAGAACUGAUA [hsa-mir-3074]	0.474	0.677	0.757	1.14	1.66
UGGCUUCUGCCUCUUUCUUUGUGGAAGCCA [hsa-mir-4269]	1.04	0.255	-0.369	-0.118	-1.13
GCGGGGAACGAGGCCGUCGGCCAUUUUGUG [hsa-mir-632]	1.04	1.2	0.912	1.59	1.58
UAUGCCAUUAAAAGUAAUGGUAAA [hsa-mir-548aj-1]	-0.52	-0.859	-0.508	-1.23	-1.2
